Consider 7 molecules from patent publication US20130316941A1 (Boehringer Ingelheim, published 2013).

Starred links: 1 amine or outer side, 2 acyl side, 3 side chain; linkers in the order of their positions; H or OH if unused. Non-standard residues stand in square brackets, D forms with d. Groups on a side chain read outwards from the residue. *: point of attachment. γGlu = O=C(O)[C@H](CCC(=O)[*:2])N[*:1]; Palmitoyl = CCCCCCCCCCCCCCCC(=O)*

The target in test [1] is human glucagon-like peptide 1 receptor (GLP-1R) (human, UniProt P43220 24-463). The test can be described thus: cell-based or functional assay.
Test [2] has as its target human glucagon receptor (Glucagon-R) (human, UniProt P47871 26-477). The test is described as follows: cell-based or functional assay.

Chain of human glucagon receptor (Glucagon-R) (P47871 26-477): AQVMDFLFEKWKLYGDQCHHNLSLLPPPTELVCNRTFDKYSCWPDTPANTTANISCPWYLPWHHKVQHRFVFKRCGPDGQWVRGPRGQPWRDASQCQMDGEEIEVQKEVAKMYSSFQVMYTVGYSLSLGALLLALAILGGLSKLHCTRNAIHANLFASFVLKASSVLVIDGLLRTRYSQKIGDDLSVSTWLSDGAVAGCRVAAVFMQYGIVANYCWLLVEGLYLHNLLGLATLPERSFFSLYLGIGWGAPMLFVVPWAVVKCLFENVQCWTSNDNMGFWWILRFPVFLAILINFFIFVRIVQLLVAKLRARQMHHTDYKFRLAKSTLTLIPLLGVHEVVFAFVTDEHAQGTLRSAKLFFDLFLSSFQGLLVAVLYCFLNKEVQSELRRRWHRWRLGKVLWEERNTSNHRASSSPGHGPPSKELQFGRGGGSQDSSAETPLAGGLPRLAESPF

B1: H-H-DSer-QGTFTSDYSRYLDE-K(Hexadecanoyl-isoGlu)-RARDFIEWLLSA-NH2 [Compound 8] (peptide)
peptide: H-H[dS]QGTFTSDYSRYLDEK([γGlu-Palmitoyl])RARDFIEWLLSA-NH2
With B1, the “EC50 values for cAMP generation in HEK293 cells expressing GLP-1 receptor” value in test [1] is 0.2 nM. For the same molecule, the “EC50 values for cAMP generation in HEK293 cells expressing Glucagon receptor” value in test [2] was found to be 0.2 nM.

B2: H-H-Aib-HGTFTSDYSRYLDE-K(Hexadecanoyl-isoGlu)-RARDFIEWLLSA-NH2 [Compound 12] (peptide)
peptide: HXHGTFTSDYSRYLDEKRARDFIEWLLSA
HELM: PEPTIDE1{H.[Aib].H.G.T.F.T.S.D.Y.S.R.Y.L.D.E.K.R.A.R.D.F.I.E.W.L.L.S.A.[am]}|PEPTIDE2{[CCCCCCCCCCCCCCCC(=O)[*:2]].[gGlu]}$PEPTIDE1,PEPTIDE2,17:R3-2:R2$$$V2.0
SMILES: CCCCCCCCCCCCCCCC(=O)N[C@@H](CCC(=O)NCCCC[C@H](NC(=O)[C@H](CCC(=O)O)NC(=O)[C@H](CC(=O)O)NC(=O)[C@H](CC(C)C)NC(=O)[C@H](Cc1ccc(O)cc1)NC(=O)[C@H](CCCNC(=N)N)NC(=O)[C@H](CO)NC(=O)[C@H](Cc1ccc(O)cc1)NC(=O)[C@H](CC(=O)O)NC(=O)[C@H](CO)NC(=O)[C@@H](NC(=O)[C@H](Cc1ccccc1)NC(=O)[C@@H](NC(=O)CNC(=O)[C@H](Cc1c[nH]cn1)NC(=O)C(C)(C)NC(=O)[C@@H](N)Cc1c[nH]cn1)[C@@H](C)O)[C@@H](C)O)C(=O)N[C@@H](CCCNC(=N)N)C(=O)N[C@@H](C)C(=O)N[C@@H](CCCNC(=N)N)C(=O)N[C@@H](CC(=O)O)C(=O)N[C@@H](Cc1ccccc1)C(=O)N[C@H](C(=O)N[C@@H](CCC(=O)O)C(=O)N[C@@H](Cc1c[nH]c2ccccc12)C(=O)N[C@@H](CC(C)C)C(=O)N[C@@H](CC(C)C)C(=O)N[C@@H](CO)C(=O)N[C@@H](C)C(N)=O)[C@@H](C)CC)C(=O)O
With B2, in test [1], the “EC50 values for cAMP generation in HEK293 cells expressing GLP-1 receptor” value is 0.06 nM. For the same molecule, in test [2], the “EC50 values for cAMP generation in HEK293 cells expressing Glucagon receptor” value came out at 0.14 nM.

B3: H-H-Aib-QGTFTSDYSKYLD-K(Hexadecanoyl-isoGlu)-RRAKDFIEWLLSA-NH2 [Compound 1] (peptide)
peptide: HXQGTFTSDYSKYLDKRRAKDFIEWLLSA
HELM: PEPTIDE1{H.[Aib].Q.G.T.F.T.S.D.Y.S.K.Y.L.D.K.R.R.A.K.D.F.I.E.W.L.L.S.A.[am]}|PEPTIDE2{[CCCCCCCCCCCCCCCC(=O)[*:2]].[gGlu]}$PEPTIDE1,PEPTIDE2,16:R3-2:R2$$$V2.0
SMILES: CCCCCCCCCCCCCCCC(=O)N[C@@H](CCC(=O)NCCCC[C@H](NC(=O)[C@H](CC(=O)O)NC(=O)[C@H](CC(C)C)NC(=O)[C@H](Cc1ccc(O)cc1)NC(=O)[C@H](CCCCN)NC(=O)[C@H](CO)NC(=O)[C@H](Cc1ccc(O)cc1)NC(=O)[C@H](CC(=O)O)NC(=O)[C@H](CO)NC(=O)[C@@H](NC(=O)[C@H](Cc1ccccc1)NC(=O)[C@@H](NC(=O)CNC(=O)[C@H](CCC(N)=O)NC(=O)C(C)(C)NC(=O)[C@@H](N)Cc1c[nH]cn1)[C@@H](C)O)[C@@H](C)O)C(=O)N[C@@H](CCCNC(=N)N)C(=O)N[C@@H](CCCNC(=N)N)C(=O)N[C@@H](C)C(=O)N[C@@H](CCCCN)C(=O)N[C@@H](CC(=O)O)C(=O)N[C@@H](Cc1ccccc1)C(=O)N[C@H](C(=O)N[C@@H](CCC(=O)O)C(=O)N[C@@H](Cc1c[nH]c2ccccc12)C(=O)N[C@@H](CC(C)C)C(=O)N[C@@H](CC(C)C)C(=O)N[C@@H](CO)C(=O)N[C@@H](C)C(N)=O)[C@@H](C)CC)C(=O)O
On to B3, for which the “EC50 values for cAMP generation in HEK293 cells expressing GLP-1 receptor” value in test [1] worked out at 0.12 nM. The “EC50 values for cAMP generation in HEK293 cells expressing Glucagon receptor” value in test [2] was determined as 0.15 nM.

B4: H-H-DSer-PGTFTSDYSRYLDE-K(Hexadecanoyl-isoGlu)-RARDFIEWLLSA-NH2 [Compound 14] (peptide)
peptide: HXPGTFTSDYSRYLDEKRARDFIEWLLSA
HELM: PEPTIDE1{H.[dS].P.G.T.F.T.S.D.Y.S.R.Y.L.D.E.K.R.A.R.D.F.I.E.W.L.L.S.A.[am]}|PEPTIDE2{[CCCCCCCCCCCCCCCC(=O)[*:2]].[gGlu]}$PEPTIDE1,PEPTIDE2,17:R3-2:R2$$$V2.0
SMILES: CCCCCCCCCCCCCCCC(=O)N[C@@H](CCC(=O)NCCCC[C@H](NC(=O)[C@H](CCC(=O)O)NC(=O)[C@H](CC(=O)O)NC(=O)[C@H](CC(C)C)NC(=O)[C@H](Cc1ccc(O)cc1)NC(=O)[C@H](CCCNC(=N)N)NC(=O)[C@H](CO)NC(=O)[C@H](Cc1ccc(O)cc1)NC(=O)[C@H](CC(=O)O)NC(=O)[C@H](CO)NC(=O)[C@@H](NC(=O)[C@H](Cc1ccccc1)NC(=O)[C@@H](NC(=O)CNC(=O)[C@@H]1CCCN1C(=O)[C@@H](CO)NC(=O)[C@@H](N)Cc1c[nH]cn1)[C@@H](C)O)[C@@H](C)O)C(=O)N[C@@H](CCCNC(=N)N)C(=O)N[C@@H](C)C(=O)N[C@@H](CCCNC(=N)N)C(=O)N[C@@H](CC(=O)O)C(=O)N[C@@H](Cc1ccccc1)C(=O)N[C@H](C(=O)N[C@@H](CCC(=O)O)C(=O)N[C@@H](Cc1c[nH]c2ccccc12)C(=O)N[C@@H](CC(C)C)C(=O)N[C@@H](CC(C)C)C(=O)N[C@@H](CO)C(=O)N[C@@H](C)C(N)=O)[C@@H](C)CC)C(=O)O
B4: the “EC50 values for cAMP generation in HEK293 cells expressing GLP-1 receptor” value in test [1] was 0.12 nM. Besides, the “EC50 values for cAMP generation in HEK293 cells expressing Glucagon receptor” value in test [2] turned out to be 0.19 nM.

B5: H-H-DSer-HGTFTSDYSRYLDE-K(Hexadecanoyl-isoGlu)-RARDFIEWLLSA-NH2 [Compound 11] (peptide)
peptide: HXHGTFTSDYSRYLDEKRARDFIEWLLSA
HELM: PEPTIDE1{H.[dS].H.G.T.F.T.S.D.Y.S.R.Y.L.D.E.K.R.A.R.D.F.I.E.W.L.L.S.A.[am]}|PEPTIDE2{[CCCCCCCCCCCCCCCC(=O)[*:2]].[gGlu]}$PEPTIDE1,PEPTIDE2,17:R3-2:R2$$$V2.0
SMILES: CCCCCCCCCCCCCCCC(=O)N[C@@H](CCC(=O)NCCCC[C@H](NC(=O)[C@H](CCC(=O)O)NC(=O)[C@H](CC(=O)O)NC(=O)[C@H](CC(C)C)NC(=O)[C@H](Cc1ccc(O)cc1)NC(=O)[C@H](CCCNC(=N)N)NC(=O)[C@H](CO)NC(=O)[C@H](Cc1ccc(O)cc1)NC(=O)[C@H](CC(=O)O)NC(=O)[C@H](CO)NC(=O)[C@@H](NC(=O)[C@H](Cc1ccccc1)NC(=O)[C@@H](NC(=O)CNC(=O)[C@H](Cc1c[nH]cn1)NC(=O)[C@@H](CO)NC(=O)[C@@H](N)Cc1c[nH]cn1)[C@@H](C)O)[C@@H](C)O)C(=O)N[C@@H](CCCNC(=N)N)C(=O)N[C@@H](C)C(=O)N[C@@H](CCCNC(=N)N)C(=O)N[C@@H](CC(=O)O)C(=O)N[C@@H](Cc1ccccc1)C(=O)N[C@H](C(=O)N[C@@H](CCC(=O)O)C(=O)N[C@@H](Cc1c[nH]c2ccccc12)C(=O)N[C@@H](CC(C)C)C(=O)N[C@@H](CC(C)C)C(=O)N[C@@H](CO)C(=O)N[C@@H](C)C(N)=O)[C@@H](C)CC)C(=O)O
As to B5, in test [1], the “EC50 values for cAMP generation in HEK293 cells expressing GLP-1 receptor” value is 0.15 nM. The “EC50 values for cAMP generation in HEK293 cells expressing Glucagon receptor” value in test [2] stood at 0.09 nM.

B6: H-H-Aib-QGTFTSDYSRYLDE-K(Hexadecanoyl-isoGlu)-RARDFIEWLLSA-NH2 [Compound 9] (peptide)
peptide: HXQGTFTSDYSRYLDEKRARDFIEWLLSA
HELM: PEPTIDE1{H.[Aib].Q.G.T.F.T.S.D.Y.S.R.Y.L.D.E.K.R.A.R.D.F.I.E.W.L.L.S.A.[am]}|PEPTIDE2{[CCCCCCCCCCCCCCCC(=O)[*:2]].[gGlu]}$PEPTIDE1,PEPTIDE2,17:R3-2:R2$$$V2.0
SMILES: CCCCCCCCCCCCCCCC(=O)N[C@@H](CCC(=O)NCCCC[C@H](NC(=O)[C@H](CCC(=O)O)NC(=O)[C@H](CC(=O)O)NC(=O)[C@H](CC(C)C)NC(=O)[C@H](Cc1ccc(O)cc1)NC(=O)[C@H](CCCNC(=N)N)NC(=O)[C@H](CO)NC(=O)[C@H](Cc1ccc(O)cc1)NC(=O)[C@H](CC(=O)O)NC(=O)[C@H](CO)NC(=O)[C@@H](NC(=O)[C@H](Cc1ccccc1)NC(=O)[C@@H](NC(=O)CNC(=O)[C@H](CCC(N)=O)NC(=O)C(C)(C)NC(=O)[C@@H](N)Cc1c[nH]cn1)[C@@H](C)O)[C@@H](C)O)C(=O)N[C@@H](CCCNC(=N)N)C(=O)N[C@@H](C)C(=O)N[C@@H](CCCNC(=N)N)C(=O)N[C@@H](CC(=O)O)C(=O)N[C@@H](Cc1ccccc1)C(=O)N[C@H](C(=O)N[C@@H](CCC(=O)O)C(=O)N[C@@H](Cc1c[nH]c2ccccc12)C(=O)N[C@@H](CC(C)C)C(=O)N[C@@H](CC(C)C)C(=O)N[C@@H](CO)C(=O)N[C@@H](C)C(N)=O)[C@@H](C)CC)C(=O)O
On to B6, for which, in test [1], the “EC50 values for cAMP generation in HEK293 cells expressing GLP-1 receptor” value was 0.05 nM. Also, the “EC50 values for cAMP generation in HEK293 cells expressing Glucagon receptor” value in test [2] turned out to be 0.1 nM.

B7: H-HSHGTFTSDYSRYLDE-K(Hexadecanoyl-isoGlu)-RARDFIEWLLSA-NH2 [Compound 10] (peptide)
peptide: HSHGTFTSDYSRYLDEKRARDFIEWLLSA
HELM: PEPTIDE1{H.S.H.G.T.F.T.S.D.Y.S.R.Y.L.D.E.K.R.A.R.D.F.I.E.W.L.L.S.A.[am]}|PEPTIDE2{[CCCCCCCCCCCCCCCC(=O)[*:2]].[gGlu]}$PEPTIDE1,PEPTIDE2,17:R3-2:R2$$$V2.0
SMILES: CCCCCCCCCCCCCCCC(=O)N[C@@H](CCC(=O)NCCCC[C@H](NC(=O)[C@H](CCC(=O)O)NC(=O)[C@H](CC(=O)O)NC(=O)[C@H](CC(C)C)NC(=O)[C@H](Cc1ccc(O)cc1)NC(=O)[C@H](CCCNC(=N)N)NC(=O)[C@H](CO)NC(=O)[C@H](Cc1ccc(O)cc1)NC(=O)[C@H](CC(=O)O)NC(=O)[C@H](CO)NC(=O)[C@@H](NC(=O)[C@H](Cc1ccccc1)NC(=O)[C@@H](NC(=O)CNC(=O)[C@H](Cc1c[nH]cn1)NC(=O)[C@H](CO)NC(=O)[C@@H](N)Cc1c[nH]cn1)[C@@H](C)O)[C@@H](C)O)C(=O)N[C@@H](CCCNC(=N)N)C(=O)N[C@@H](C)C(=O)N[C@@H](CCCNC(=N)N)C(=O)N[C@@H](CC(=O)O)C(=O)N[C@@H](Cc1ccccc1)C(=O)N[C@H](C(=O)N[C@@H](CCC(=O)O)C(=O)N[C@@H](Cc1c[nH]c2ccccc12)C(=O)N[C@@H](CC(C)C)C(=O)N[C@@H](CC(C)C)C(=O)N[C@@H](CO)C(=O)N[C@@H](C)C(N)=O)[C@@H](C)CC)C(=O)O
For the molecule B7, the “EC50 values for cAMP generation in HEK293 cells expressing GLP-1 receptor” value in test [1] worked out at 0.47 nM. Besides, the “EC50 values for cAMP generation in HEK293 cells expressing Glucagon receptor” value in test [2] came out at 0.06 nM.
